According to patent US20220306695A1, “COMPSTATIN ANALOGUES AND THEIR MEDICAL USES” (priority 2019, published 2022):
Like-named read-outs stand apart in the source and are kept apart here. Values belong to the molecule of their own block, whether it stands above or below them. Starred links: 1 amine or outer side, 2 acyl side, 3 side chain; linkers in the order of their positions; H or OH if unused. Positions of bridges follow the written chain, without caps; N, C: chain ends. Non-standard residues stand in square brackets, D forms with d. Residues, ends and D or L forms follow the SMILES beside them. Groups on a side chain read outwards from the residue. *: point of attachment. Trp(1-Me) = Cn1cc(C[C@H](N)C(=O)O)c2ccccc21; C18 diacid = O=C(O)CCCCCCCCCCCCCCCCC(=O)*; γGlu = O=C(O)[C@H](CCC(=O)[*:2])N[*:1]; AEEA = NCCOCCOCC(=O)O; Sar = CNCC(=O)O

Assays:
in vivo = test: in vivo; set-up: species or system Cynomolgus monkeys (Macaca fascicularis); details: male, cynomolgus monkey, sc, 1840 nmol/kg, t½
How it was run: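 Healthy male cynomolgus monkeys dosed once subcutaneously at 1840 nmol/kg in 20 mM phosphate pH 7.5 with mannitol. Serum sampled pre-dose to 120 h and total drug measured by SPE and LC-MS/MS. Terminal half-life calculated non-compartmentally as ln(2)/λz from the terminal log-linear phase.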

[1] = type: physicochemical; details: 50 mg/mL peptide
How it was run: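 Compstatin analogues with cystathionine or disulfide bridge held at 50 mg/mL in 20 mM phosphate pH 5.5, 6.5 or 7.5 and stored 14 days at 40 °C. At 0, 7 and 14 days, samples diluted to 2 mg/mL; purity by reverse-phase HPLC (220 nm) and covalent oligomer content by denaturing SEC (215 nm), from integrated chromatograms.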

[2] = test system: classical complement pathway; test: In vitro haemolysis assay (inhibition of classical complement pathway); type: cell-based, human; details: Table 3; human serum, sensitized sheep red blood cells; read-out: IC50[nM], in vitro analysis of inhibition of hemolysis
How it was run: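 Serially diluted compound (9 points) was preincubated 15 min at room temperature with diluted human serum, titrated per batch to give 70-90% maximal haemolysis, in Tris/casein buffer pH 7.4 with Mg2+/Ca2+. Antibody-sensitized sheep erythrocytes were then added for 30 min at 37° C, and the reaction was stopped with EDTA. Haemolysis was read at A405, with IC50 from 4PL fit.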

Human C3 [3] = target: T1, Human C3 (Homo sapiens, UniProt P01024); test: Affinity measurement by surface plasmon resonance (SPR) with immobilized C3; type: binding; details: Table 7; immobilized C3, 25° C., pH 7.4
T1 construct: purchased Complement tech A1 13c (so in the source)

Human C3 [4] = target: T2, Human C3 (human, UniProt P01024 23-1663); test: cell-based or functional assay
Human C3 [5] = target: T2, Human C3; test: cell-based or functional assay; remark: listed apart in the source

T2 sequence (P01024 23-1663 limits assumed): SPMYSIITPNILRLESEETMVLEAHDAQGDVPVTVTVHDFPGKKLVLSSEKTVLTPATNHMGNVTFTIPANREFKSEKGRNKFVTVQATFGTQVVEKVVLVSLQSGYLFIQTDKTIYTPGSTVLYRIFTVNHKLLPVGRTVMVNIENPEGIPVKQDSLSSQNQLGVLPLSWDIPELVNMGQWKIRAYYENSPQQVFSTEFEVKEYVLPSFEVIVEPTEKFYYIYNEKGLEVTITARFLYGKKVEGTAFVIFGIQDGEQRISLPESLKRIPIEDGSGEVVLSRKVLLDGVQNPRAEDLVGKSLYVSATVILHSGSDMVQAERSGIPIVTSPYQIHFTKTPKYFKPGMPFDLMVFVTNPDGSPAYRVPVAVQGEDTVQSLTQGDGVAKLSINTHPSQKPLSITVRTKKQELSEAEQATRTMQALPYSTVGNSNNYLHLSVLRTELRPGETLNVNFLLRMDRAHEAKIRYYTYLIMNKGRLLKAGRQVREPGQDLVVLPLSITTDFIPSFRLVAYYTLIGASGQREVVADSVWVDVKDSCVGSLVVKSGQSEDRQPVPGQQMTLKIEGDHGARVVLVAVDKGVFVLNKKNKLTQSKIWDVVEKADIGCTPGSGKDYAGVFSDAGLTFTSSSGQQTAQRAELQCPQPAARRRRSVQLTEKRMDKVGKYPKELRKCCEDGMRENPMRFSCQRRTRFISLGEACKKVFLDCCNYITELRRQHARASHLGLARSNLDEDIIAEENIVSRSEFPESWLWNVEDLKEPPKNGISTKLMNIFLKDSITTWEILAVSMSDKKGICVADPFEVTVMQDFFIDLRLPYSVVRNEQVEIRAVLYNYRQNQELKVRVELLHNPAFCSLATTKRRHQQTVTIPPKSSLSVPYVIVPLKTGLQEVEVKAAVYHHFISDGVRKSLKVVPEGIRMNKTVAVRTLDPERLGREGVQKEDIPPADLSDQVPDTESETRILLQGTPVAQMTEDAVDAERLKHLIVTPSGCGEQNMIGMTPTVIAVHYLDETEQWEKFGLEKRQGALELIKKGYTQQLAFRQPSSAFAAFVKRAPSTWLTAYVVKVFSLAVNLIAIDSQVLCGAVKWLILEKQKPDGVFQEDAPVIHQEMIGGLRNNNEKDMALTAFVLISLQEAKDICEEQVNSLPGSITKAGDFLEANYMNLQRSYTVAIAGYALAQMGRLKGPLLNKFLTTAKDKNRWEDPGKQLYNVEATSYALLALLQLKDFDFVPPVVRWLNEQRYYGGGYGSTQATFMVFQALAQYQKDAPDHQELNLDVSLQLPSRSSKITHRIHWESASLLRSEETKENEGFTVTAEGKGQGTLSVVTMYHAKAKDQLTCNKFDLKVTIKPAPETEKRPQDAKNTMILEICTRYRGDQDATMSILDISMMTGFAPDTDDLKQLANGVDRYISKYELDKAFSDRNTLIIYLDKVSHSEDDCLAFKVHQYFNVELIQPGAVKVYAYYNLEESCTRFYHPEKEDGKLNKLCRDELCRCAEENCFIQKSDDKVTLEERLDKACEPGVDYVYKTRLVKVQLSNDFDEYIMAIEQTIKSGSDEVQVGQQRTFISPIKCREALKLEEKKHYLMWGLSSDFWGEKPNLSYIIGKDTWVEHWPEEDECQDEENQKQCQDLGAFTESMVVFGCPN

half-life (in vivo): 105 h
Covalent oligomer content after 14 days 40° C. (%), F1 ([1]; F1: 20 mM phosphate pH 5.5, denaturing SEC): 52%
Purity after 14 days 40° C. (%), F1 ([1]; F1: 20 mM phosphate pH 5.5, normalized purity (HPLC)): 56%
Covalent oligomer content after 14 days 40° C. (%), F2 ([1]; F2: 20 mM phosphate pH 6.5, denaturing SEC): 48%
Purity after 14 days 40° C. (%), F2 ([1]; F2: 20 mM phosphate pH 6.5, normalized purity (HPLC)): 54%
Covalent oligomer content after 14 days 40° C. (%), F2 ([1]; F3: 20 mM phosphate pH 7.5, denaturing SEC): 45%
Purity after 14 days 40° C. (%), F3 ([1]; F3: 20 mM phosphate pH 7.5, normalized purity (HPLC)): 54%
Kd (Human C3 [3]): 11 nM
Molecule: CC[C@H](C)[C@@H]1NC(=O)[C@@H](NC(=O)[C@H](Cc2ccccc2)NC(=O)[C@H](CCC(=O)O)NC(=O)[C@H](CO)NC(C)=O)CSSC[C@@H](C(=O)N(C)CC(=O)N[C@@H](CCC(=O)O)C(=O)NCC(=O)N[C@@H](CCC(=O)O)C(=O)NCCOCCOCC(=O)NCCOCCOCC(=O)N[C@@H](CCCCNC(=O)CC[C@H](NC(=O)CNC(=O)CC[C@H](NC(=O)CCCCCCCCCCCCCCCCC(=O)O)C(=O)O)C(=O)O)C(N)=O)NC(=O)[C@H](CCCNC(=N)N)NC(=O)[C@H](Cc2c[nH]cn2)NC(=O)[C@H](CCC(=O)O)NC(=O)CNC(=O)[C@H](Cc2c[nH]c3ccccc23)NC(=O)[C@H](CC(=O)O)NC(=O)[C@H](CCC(N)=O)NC(=O)[C@H](Cc2cn(C)c3ccccc23)NC1=O [Compound 123] (Ac-SEFCI[Trp(1-Me)]QDWGEHRC[Sar]EGE[AEEA][AEEA]K([γGlu-Gly-γGlu-C18 diacid])-NH2; disulfide 4-14)
IC50 [2]: < 100 nM

B1: Compound 3 (peptide)
peptide: Ac-ESSAICIWQDWGEHRCT-NH2
modifications: disulfide 6-16
SMILES: CC[C@H](C)[C@H](NC(=O)[C@H](C)NC(=O)[C@H](CO)NC(=O)[C@H](CO)NC(=O)[C@H](CCC(=O)O)NC(C)=O)C(=O)N[C@H]1CSSC[C@@H](C(=O)N[C@H](C(N)=O)[C@@H](C)O)NC(=O)[C@H](CCCNC(=N)N)NC(=O)[C@H](Cc2c[nH]cn2)NC(=O)[C@H](CCC(=O)O)NC(=O)CNC(=O)[C@H](Cc2c[nH]c3ccccc23)NC(=O)[C@H](CC(=O)O)NC(=O)[C@H](CCC(N)=O)NC(=O)[C@H](Cc2c[nH]c3ccccc23)NC(=O)[C@H]([C@@H](C)CC)NC1=O
CP hemolysis IC50 (Human C3 [4]): 69 nM
IC50[nM], inhibition of hemolysis (Human C3 [5]): < 100 nM

B2: Compound B (peptide)
peptide: Ac-ICVWQDWGSHRCT-NH2
modifications: disulfide 2-12
SMILES: CC[C@H](C)[C@H](NC(C)=O)C(=O)N[C@H]1CSSC[C@@H](C(=O)N[C@H](C(N)=O)[C@@H](C)O)NC(=O)[C@H](CCCNC(=N)N)NC(=O)[C@H](Cc2c[nH]cn2)NC(=O)[C@H](CO)NC(=O)CNC(=O)[C@H](Cc2c[nH]c3ccccc23)NC(=O)[C@H](CC(=O)O)NC(=O)[C@H](CCC(N)=O)NC(=O)[C@H](Cc2c[nH]c3ccccc23)NC(=O)[C@H](C(C)C)NC1=O
CP hemolysis IC50 (Human C3 [4]): 360 nM

B3: Compound 6 (peptide)
peptide: Ac-ICIWQDWGSHRCT-NH2
modifications: disulfide 2-12
SMILES: CC[C@H](C)[C@H](NC(C)=O)C(=O)N[C@H]1CSSC[C@@H](C(=O)N[C@H](C(N)=O)[C@@H](C)O)NC(=O)[C@H](CCCNC(=N)N)NC(=O)[C@H](Cc2c[nH]cn2)NC(=O)[C@H](CO)NC(=O)CNC(=O)[C@H](Cc2c[nH]c3ccccc23)NC(=O)[C@H](CC(=O)O)NC(=O)[C@H](CCC(N)=O)NC(=O)[C@H](Cc2c[nH]c3ccccc23)NC(=O)[C@H]([C@@H](C)CC)NC1=O
CP hemolysis IC50 (Human C3 [4]): 140 nM
IC50[nM], inhibition of hemolysis (Human C3 [5]): < 250 nM

B4: Compound E (peptide)
peptide: Ac-ICVWQDWGAHSCT-NH2
modifications: disulfide 2-12
SMILES: CC[C@H](C)[C@H](NC(C)=O)C(=O)N[C@H]1CSSC[C@@H](C(=O)N[C@H](C(N)=O)[C@@H](C)O)NC(=O)[C@H](CO)NC(=O)[C@H](Cc2c[nH]cn2)NC(=O)[C@H](C)NC(=O)CNC(=O)[C@H](Cc2c[nH]c3ccccc23)NC(=O)[C@H](CC(=O)O)NC(=O)[C@H](CCC(N)=O)NC(=O)[C@H](Cc2c[nH]c3ccccc23)NC(=O)[C@H](C(C)C)NC1=O
CP hemolysis IC50 (Human C3 [4]): > 1000 nM

B5: Compound 19 (peptide)
peptide: Ac-ICIWQDWGAHSCT-NH2
modifications: disulfide 2-12
SMILES: CC[C@H](C)[C@H](NC(C)=O)C(=O)N[C@H]1CSSC[C@@H](C(=O)N[C@H](C(N)=O)[C@@H](C)O)NC(=O)[C@H](CO)NC(=O)[C@H](Cc2c[nH]cn2)NC(=O)[C@H](C)NC(=O)CNC(=O)[C@H](Cc2c[nH]c3ccccc23)NC(=O)[C@H](CC(=O)O)NC(=O)[C@H](CCC(N)=O)NC(=O)[C@H](Cc2c[nH]c3ccccc23)NC(=O)[C@H]([C@@H](C)CC)NC1=O
CP hemolysis IC50 (Human C3 [4]): 140 nM
IC50[nM], inhibition of hemolysis (Human C3 [5]): < 250 nM

B6: Compound 24 (peptide)
peptide: Ac-ICIWQDWGEHRCTEGE-NH2
modifications: disulfide 2-12
SMILES: CC[C@H](C)[C@H](NC(C)=O)C(=O)N[C@H]1CSSC[C@@H](C(=O)N[C@H](C(=O)N[C@@H](CCC(=O)O)C(=O)NCC(=O)N[C@@H](CCC(=O)O)C(N)=O)[C@@H](C)O)NC(=O)[C@H](CCCNC(=N)N)NC(=O)[C@H](Cc2c[nH]cn2)NC(=O)[C@H](CCC(=O)O)NC(=O)CNC(=O)[C@H](Cc2c[nH]c3ccccc23)NC(=O)[C@H](CC(=O)O)NC(=O)[C@H](CCC(N)=O)NC(=O)[C@H](Cc2c[nH]c3ccccc23)NC(=O)[C@H]([C@@H](C)CC)NC1=O
notes: also called Comp No 24
CP hemolysis IC50 (Human C3 [4]): 90 nM
IC50[nM], inhibition of hemolysis (Human C3 [5]): < 100 nM

B7: Compound 21 (peptide)
peptide: Ac-ICIWQDWGEHRCS-NH2
modifications: disulfide 2-12
SMILES: CC[C@H](C)[C@H](NC(C)=O)C(=O)N[C@H]1CSSC[C@@H](C(=O)N[C@@H](CO)C(N)=O)NC(=O)[C@H](CCCNC(=N)N)NC(=O)[C@H](Cc2c[nH]cn2)NC(=O)[C@H](CCC(=O)O)NC(=O)CNC(=O)[C@H](Cc2c[nH]c3ccccc23)NC(=O)[C@H](CC(=O)O)NC(=O)[C@H](CCC(N)=O)NC(=O)[C@H](Cc2c[nH]c3ccccc23)NC(=O)[C@H]([C@@H](C)CC)NC1=O
CP hemolysis IC50 (Human C3 [4]): 77 nM
IC50[nM], inhibition of hemolysis (Human C3 [5]): < 100 nM

B8: Compound 15 (peptide)
peptide: Ac-ICIWQDWGEHRCTGAES-NH2
modifications: disulfide 2-12
SMILES: CC[C@H](C)[C@H](NC(C)=O)C(=O)N[C@H]1CSSC[C@@H](C(=O)N[C@H](C(=O)NCC(=O)N[C@@H](C)C(=O)N[C@@H](CCC(=O)O)C(=O)N[C@@H](CO)C(N)=O)[C@@H](C)O)NC(=O)[C@H](CCCNC(=N)N)NC(=O)[C@H](Cc2c[nH]cn2)NC(=O)[C@H](CCC(=O)O)NC(=O)CNC(=O)[C@H](Cc2c[nH]c3ccccc23)NC(=O)[C@H](CC(=O)O)NC(=O)[C@H](CCC(N)=O)NC(=O)[C@H](Cc2c[nH]c3ccccc23)NC(=O)[C@H]([C@@H](C)CC)NC1=O
CP hemolysis IC50 (Human C3 [4]): 47 nM
IC50[nM], inhibition of hemolysis (Human C3 [5]): < 100 nM

B9: Compound C (peptide)
peptide: Ac-ESSAICVWQDWGEHRCT-NH2
modifications: disulfide 6-16
SMILES: CC[C@H](C)[C@H](NC(=O)[C@H](C)NC(=O)[C@H](CO)NC(=O)[C@H](CO)NC(=O)[C@H](CCC(=O)O)NC(C)=O)C(=O)N[C@H]1CSSC[C@@H](C(=O)N[C@H](C(N)=O)[C@@H](C)O)NC(=O)[C@H](CCCNC(=N)N)NC(=O)[C@H](Cc2c[nH]cn2)NC(=O)[C@H](CCC(=O)O)NC(=O)CNC(=O)[C@H](Cc2c[nH]c3ccccc23)NC(=O)[C@H](CC(=O)O)NC(=O)[C@H](CCC(N)=O)NC(=O)[C@H](Cc2c[nH]c3ccccc23)NC(=O)[C@H](C(C)C)NC1=O
CP hemolysis IC50 (Human C3 [4]): 300 nM

B10: Compound F (peptide)
peptide: Ac-ICVWQDWGEHSCT-NH2
modifications: disulfide 2-12
SMILES: CC[C@H](C)[C@H](NC(C)=O)C(=O)N[C@H]1CSSC[C@@H](C(=O)N[C@H](C(N)=O)[C@@H](C)O)NC(=O)[C@H](CO)NC(=O)[C@H](Cc2c[nH]cn2)NC(=O)[C@H](CCC(=O)O)NC(=O)CNC(=O)[C@H](Cc2c[nH]c3ccccc23)NC(=O)[C@H](CC(=O)O)NC(=O)[C@H](CCC(N)=O)NC(=O)[C@H](Cc2c[nH]c3ccccc23)NC(=O)[C@H](C(C)C)NC1=O
CP hemolysis IC50 (Human C3 [4]): 540 nM

B11: Compound J (peptide)
peptide: Ac-ICVWQDWGEHRCTEGE-NH2
modifications: disulfide 2-12
SMILES: CC[C@H](C)[C@H](NC(C)=O)C(=O)N[C@H]1CSSC[C@@H](C(=O)N[C@H](C(=O)N[C@@H](CCC(=O)O)C(=O)NCC(=O)N[C@@H](CCC(=O)O)C(N)=O)[C@@H](C)O)NC(=O)[C@H](CCCNC(=N)N)NC(=O)[C@H](Cc2c[nH]cn2)NC(=O)[C@H](CCC(=O)O)NC(=O)CNC(=O)[C@H](Cc2c[nH]c3ccccc23)NC(=O)[C@H](CC(=O)O)NC(=O)[C@H](CCC(N)=O)NC(=O)[C@H](Cc2c[nH]c3ccccc23)NC(=O)[C@H](C(C)C)NC1=O
CP hemolysis IC50 (Human C3 [4]): 240 nM
